{"source": "paper PMC10269845", "molecular_target": "plasminogen (UniProt P00747)", "sequence (P00747 20-810)": "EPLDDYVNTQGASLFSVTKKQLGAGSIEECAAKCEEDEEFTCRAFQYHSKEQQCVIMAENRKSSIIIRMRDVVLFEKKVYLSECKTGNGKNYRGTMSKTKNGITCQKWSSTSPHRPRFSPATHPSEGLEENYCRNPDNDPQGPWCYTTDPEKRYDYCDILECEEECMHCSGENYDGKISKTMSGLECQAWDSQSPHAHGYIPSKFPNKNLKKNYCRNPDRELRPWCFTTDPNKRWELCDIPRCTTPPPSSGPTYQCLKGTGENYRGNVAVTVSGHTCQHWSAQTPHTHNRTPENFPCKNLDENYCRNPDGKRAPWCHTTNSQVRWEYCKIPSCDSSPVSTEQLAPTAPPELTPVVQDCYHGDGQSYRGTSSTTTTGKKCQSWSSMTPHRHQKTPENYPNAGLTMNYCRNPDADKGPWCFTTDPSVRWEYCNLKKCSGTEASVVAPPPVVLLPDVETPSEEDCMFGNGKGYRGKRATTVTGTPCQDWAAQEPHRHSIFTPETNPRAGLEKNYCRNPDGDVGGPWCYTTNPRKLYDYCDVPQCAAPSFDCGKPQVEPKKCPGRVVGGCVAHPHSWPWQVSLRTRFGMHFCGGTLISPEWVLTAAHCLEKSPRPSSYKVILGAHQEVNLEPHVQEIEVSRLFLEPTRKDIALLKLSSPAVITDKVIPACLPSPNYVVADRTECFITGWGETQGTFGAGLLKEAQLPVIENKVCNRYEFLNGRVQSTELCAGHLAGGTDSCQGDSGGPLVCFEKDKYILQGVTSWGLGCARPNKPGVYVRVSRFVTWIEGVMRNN", "assay": "SPR"}
{"substance": "rGAPDH C-terminal mutant (K336A) (from UniProt E4QS33 1-336) (enzyme)", "values": [{"measurement": "Kd", "value": 600, "unit": "nM"}]}
